This passage reports K half results from publication PMC7783346.

For the data set, the system named is His6-KfrA G38A (plasmid RA3 (IncU; Aeromonas hydrophila in Fig S1/S3)). In words: EMSA. Particulars: EMSA: 50 mM Tris-HCl pH 8.0, 10 mM MgCl2, 50 mM NaCl, 37 C, 30 min, 10 nM EcoRI-NdeI-digested plasmid DNA (vector fragment as internal competitor), 20 ul …. Background: Mobility shift assays separate free from complexed probe on a gel.

Turning to “WT OK (kfrAp), EcoRI-NdeI fragment of pESB2.68”, the K half is 260 nM.
